T1: B-RCAL (BÜHLMANN recombinant calprotectin; His6-linker-S100A9-linker-S100A8)
T1 chain: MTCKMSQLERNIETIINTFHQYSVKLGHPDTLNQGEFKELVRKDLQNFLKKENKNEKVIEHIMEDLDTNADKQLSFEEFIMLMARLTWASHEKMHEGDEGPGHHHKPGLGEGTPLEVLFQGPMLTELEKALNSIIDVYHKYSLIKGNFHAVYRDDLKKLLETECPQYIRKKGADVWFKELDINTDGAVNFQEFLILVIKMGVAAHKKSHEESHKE

T2: B-RCAL (BÜHLMANN recombinant calprotectin; His6-linker-S100A9-linker-S100A8) (human)
T2 chain: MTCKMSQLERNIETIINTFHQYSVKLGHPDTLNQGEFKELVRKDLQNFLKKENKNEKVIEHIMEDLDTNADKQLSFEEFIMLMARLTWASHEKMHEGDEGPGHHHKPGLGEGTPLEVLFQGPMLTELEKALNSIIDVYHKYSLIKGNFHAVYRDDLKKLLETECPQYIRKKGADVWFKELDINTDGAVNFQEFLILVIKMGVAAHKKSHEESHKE


Legend:
[1] = target: T1, B-RCAL (BÜHLMANN recombinant …); assay: fluorescence polarisation; settings: chain shown with the change, in the presence of calcium ions, three independent measurements
[2] = target: T2, B-RCAL (BÜHLMANN recombinant …); assay: FP; settings: modification not given

| Binder | Kd [2] | other results |
| --- | --- | --- |
| RCPECVAFPMFQSHWYSG [peptide 3 isomer 1 (dumbbell shaped, double-bridged) C13S; C17S] |  | Kd ([1]; Cys1-Cys2 chemically bridged): 0.0169 µM |
| RSPESVAFPMFQSHWYSA [G18A] | 0.031 µM |  |
| RSPESVAFPMFQCHWYCG [peptide 3 isomer 1 (dumbbell shaped, double-bridged) C2S; C5S] |  | Kd ([1]; Cys3-Cys4 chemically bridged): 0.0179 µM |
| RSPESVAFPMFQSHAYSG [W15A] | 0.024 µM |  |
| RSPESVAFAMFQSHWYSG [P9A] | 0.03 µM |  |
| RSPASVAFPMFQSHWYSG [E4A] | 0.026 µM |  |

From article PMC10192418, “High-affinity peptides developed against calprotectin and their application as synthetic ligands in diagnostic assays” (Nature Communications, 2023)
